Results from patent publication US20240317834A1, “COMPOSITIONS AND METHODS FOR NEUROLOGICAL DISEASES” (CODA BIOTHERAPEUTICS, INC., priority 2020, published 2024).
Where a chain is given by its changes, count along the chain named. In names and notes the source's numbering stands.

System: Lenti-X 293T cells
Assay: YFP fluorescence quenching anion reporter plate reader assay of engineered receptors stimulated with acetylcholine or a non-native ligand
Assay type: cell-based
Conditions: for percent quench of YFP fluorescence, 10 uM ach: acetylcholine 10 uM; for percent quench of YFP fluorescence, 100 uM ach: acetylcholine 100 uM; for percent quench of YFP fluorescence, 1 mM ach: acetylcholine 1 mM; for percent quench of YFP fluorescence, 3 mM ach: acetylcholine 3 mM
Description: To screen these mutant LGICs for those having novel response profiles to ligands, an anion reporter assay was developed to assess the function of the LGICs in a high throughput format. In this assay, cells expressing a YFP reporter whose fluorescence is quenched in the presence of anion are transfected with DNA encoding the channel of interest. Upon exposure to ligand, channels that are activated will flux anion, resulting in a dose-dependent quench of the YFP that can be detected on a plate reader. The greater the quench signal (i.e., the more positive the value), the higher the ligand activity on the receptor is.
Lenti-X 293T cells (LX293T, Clontech) were maintained in DMEM containing 10% FBS and 1% penicillin/streptomycin (Invitrogen). […] Two days before assay, cells were split at a density of 20,000 cells/well in a 96-well tissue culture plate coated with poly-d lysine (Thermo Scientific). The next day, the cells were transiently transfected with 0.1 μg of DNA per well using standard Fugene protocol (Promega). On the day of assay, cells were washed 2 times in 1× extracellular solution (1×ECS: 140 mM NaCl, 5 mM KCl, 1 mM MgCl2, 2 mM CaCl2), 10 mM HEPES, 10 mM glucose, pH 7.2, mOsms 300). After the last wash, 100 μL of 1×ECS was added to the wells and the plate was incubated at 37° C. for 30 min. While incubating the plate, the drugs were diluted to a 2× concentration in 1×ECS-NaI (same components as 1×ECS except the 140 mM NaCl was replaced by 140 mM NaI). The plates were then read on a Flexstation3 (Molecular Devices). Each well, 8 wells at a time, of the plate is read for 2 min using a Flexstation3 (Molecular Devices) as follows: 1) a baseline YFP fluorescence is read for 17 sec, 2) 100 μL of ligand is added, and 3) the changes in YFP fluorescence are then measured every 1.3 sec for 1 minute and 43 seconds. The percent quench is calculated from the average fluorescence of the last 10 seconds of the read divided by the baseline average of the first 15 seconds prior to the ligand addition.
FIGS. 1A-1J provide heat maps of the percent quench of YFP fluorescence following stimulation by various doses of either acetylcholine or the non-native ligand as indicated in the Figures. CODA71 (SEQ ID NO: 33) was used as a control, and CODA75 (SEQ ID NO: 29, a non-responding chimeric engineered receptor) was used as the negative control. Quenching of the fluorescence signal, as indicated by blue shaded cells, indicate the level of engineered receptor activation by the non-native ligand at that concentration.

B1: CODA282: engineered chimeric LGIC receptor, Y115D in SEQ ID NO: 33 (protein)
chain: MRCSPGGVWLALAASLLHVSLQGEFQRKLYKELVKNYNPLERPVANDSQPLTVYFSLSLLQIMDVDEKNQVLTTNIWLQMSWTDHYLQWNVSEYPGVKTVRFPDGQIWKPDILLDNSADERFDATFHTNVLVNSSGHCQYLPPGIFKSSCPMDLKNFPMDVQTCKLKFGSWSYGGWSLDLQMQEADISGYIPNGEWDLVGIPGKRSERFYECCKEPYPDVTFTVTMRRRMGYYLIQMYIPSLLIVILSWISFWINMDAAPARVGLGITTVLTMTTQSSGSRASLPKVSYVKAIDIWMAVCLLFVFSALLEYAAVNFVSRQHKELLRFRRKRRHHKSPMLNLFQEDEAGEGRFNFSAYGMGPACLQAKDGISVKGANNSNTTNPPPAPSKSPEEMRKLFIQRAKKIDKISRIGFPMAFLIFNMFYWIIYKIVRREDVHNQ
modifications: synthetic sequence of chimeric LGIC
YFP fluorescence quenching using CNL001 (1 nM CNL001, first column): −15.837% | YFP fluorescence quenching using CNL001 (1 nM CNL001, second column): −6.519% | YFP fluorescence quenching using TC-5619/Bradanicline (1 nM brd): −0.54% | YFP fluorescence quenching using TC-5619/Bradanicline (3 nM brd): −7.22% | YFP fluorescence quenching using Varenicline (3 nM var, first column): 2.111 | YFP fluorescence quenching using Varenicline (3 nM var, second column): −12.265 | YFP fluorescence quenching using CNL001 (10 nM CNL001, first column): −4.862% | YFP fluorescence quenching using CNL001 (10 nM CNL001, second column): −8.244% | YFP fluorescence quenching using TC-5619/Bradanicline (10 nM brd): −2.82% | YFP fluorescence quenching using TC-5619/Bradanicline (30 nM brd): −16.67% | YFP fluorescence quenching using Facinicline (30 nM fac): 10.17 | YFP fluorescence quenching using Varenicline (30 nM var, first column): −4.433 | YFP fluorescence quenching using Varenicline (30 nM var, second column): −6.153 | YFP fluorescence quenching using CNL001 (50 nM CNL001, first column): −3.807% | YFP fluorescence quenching using CNL001 (50 nM CNL001, second column): −2.871% | YFP fluorescence quenching using ABT-126 (50 nM abt): −21.22% | YFP fluorescence quenching using CNL001 (100 nM CNL001, first column): −7.924% | YFP fluorescence quenching using CNL001 (100 nM CNL001, second column): 2.11% | YFP fluorescence quenching using CNL002 (100 nM CNL002): −9.7% | YFP fluorescence quenching using ABT-126 (100 nM abt): −19.7% | YFP fluorescence quenching using AZD-0328 (100 nM azd0328): 3.19% | YFP fluorescence quenching using TC-5619/Bradanicline (100 nM brd): −0.02% | YFP fluorescence quenching using Facinicline (100 nM fac): 24.77 | YFP fluorescence quenching using ABT-126 (300 nM abt): −15.55% | YFP fluorescence quenching using AZD-0328 (300 nM azd0328): 4.79% | YFP fluorescence quenching using TC-5619/Bradanicline (300 nM brd): −12.37% | YFP fluorescence quenching using Facinicline (300 nM fac): 51.04 | YFP fluorescence quenching using Varenicline (300 nM var, first column): −0.861 | YFP fluorescence quenching using Varenicline (300 nM var, second column): −1.308 | YFP fluorescence quenching using Varenicline (500 nM var, first column): 0.733 | YFP fluorescence quenching using Varenicline (500 nM var, second column): −4.633 | YFP fluorescence quenching using CNL001 (1 uM CNL001, first column): 11.047% | YFP fluorescence quenching using CNL001 (1 uM CNL001, second column): 8.04% | YFP fluorescence quenching using CNL002 (1 uM CNL002): −8.37% | YFP fluorescence quenching using ABT-126 (1 uM abt): −14.31% | YFP fluorescence quenching using TC-5619/Bradanicline (1 uM brd): 31.23% | YFP fluorescence quenching using TC-6987 (1 uM tc6987): 13.01 | YFP fluorescence quenching using Varenicline (1 uM var, first column): −4.512 | YFP fluorescence quenching using Varenicline (1 uM var, second column): 0.02 | YFP fluorescence quenching using Facinicline (10 uM fac): 79.76 | YFP fluorescence quenching using TC-6987 (10 uM tc6987): 14.73 | YFP fluorescence quenching using CNL002 (30 uM CNL002): 3.4% | YFP fluorescence quenching using AZD-0328 (30 uM azd0328): 76.78% | YFP fluorescence quenching using Facinicline (30 uM fac): 81.7 | YFP fluorescence quenching using TC-6987 (500 uM tc6987): 14.29 | percent quench of YFP fluorescence, 30 nM TC-6683 (TC-6683 30 nM): 0.365% | percent quench of YFP fluorescence, 300 nM TC-6683 (TC-6683 300 nM): −6.865% | percent quench of YFP fluorescence, 3 uM TC-6683 (TC-6683 3 uM): −4.927% | percent quench of YFP fluorescence, 30 uM TC-6683 (TC-6683 30 uM): −11.259% | percent quench of YFP fluorescence, 100 uM TC-6683 (TC-6683 100 uM): −11.894% | percent quench of YFP fluorescence, 10 uM ach: 6.81% | percent quench of YFP fluorescence, 100 uM ach: 1.19% | percent quench of YFP fluorescence, 1 mM ach: −14.05% | percent quench of YFP fluorescence, 3 mM ach: 2.37%

B2: CODA283: engineered chimeric LGIC receptor, Y115E_N379K in SEQ ID NO: 33 (protein)
chain: B1 chain with D115E, N379K
modifications: synthetic sequence of chimeric LGIC
YFP fluorescence quenching using CNL001 (1 nM CNL001, first column): −0.713% | YFP fluorescence quenching using CNL001 (1 nM CNL001, second column): −0.621% | YFP fluorescence quenching using TC-5619/Bradanicline (1 nM brd): 0.59% | YFP fluorescence quenching using TC-5619/Bradanicline (3 nM brd): −6.41% | YFP fluorescence quenching using CNL001 (10 nM CNL001, first column): 7.739% | YFP fluorescence quenching using CNL001 (10 nM CNL001, second column): 15.277% | YFP fluorescence quenching using TC-5619/Bradanicline (10 nM brd): −1.58% | YFP fluorescence quenching using TC-5619/Bradanicline (30 nM brd): −14.24% | YFP fluorescence quenching using Facinicline (30 nM fac): 6.39 | YFP fluorescence quenching using CNL001 (50 nM CNL001, first column): 19.489% | YFP fluorescence quenching using CNL001 (50 nM CNL001, second column): 33.703% | YFP fluorescence quenching using ABT-126 (50 nM abt): −22.65% | YFP fluorescence quenching using CNL001 (100 nM CNL001, first column): 56.886% | YFP fluorescence quenching using CNL001 (100 nM CNL001, second column): 60.171% | YFP fluorescence quenching using CNL002 (100 nM CNL002): −5.81% | YFP fluorescence quenching using ABT-126 (100 nM abt): −20.55% | YFP fluorescence quenching using AZD-0328 (100 nM azd0328): −2.1% | YFP fluorescence quenching using TC-5619/Bradanicline (100 nM brd): 33.36% | YFP fluorescence quenching using ABT-126 (300 nM abt): −12.93% | YFP fluorescence quenching using AZD-0328 (300 nM azd0328): 38.2% | YFP fluorescence quenching using TC-5619/Bradanicline (300 nM brd): 43.81% | YFP fluorescence quenching using Facinicline (300 nM fac): 78.36 | YFP fluorescence quenching using CNL001 (1 uM CNL001, first column): 69.836% | YFP fluorescence quenching using CNL001 (1 uM CNL001, second column): 73.855% | YFP fluorescence quenching using CNL002 (1 uM CNL002): 9.69% | YFP fluorescence quenching using ABT-126 (1 uM abt): 1.71% | YFP fluorescence quenching using TC-5619/Bradanicline (1 uM brd): 75.39% | YFP fluorescence quenching using TC-6987 (1 uM tc6987): −9.54 | YFP fluorescence quenching using Facinicline (10 uM fac): 81.93 | YFP fluorescence quenching using TC-6987 (10 uM tc6987): −7.06 | YFP fluorescence quenching using CNL002 (30 uM CNL002): −12.85% | YFP fluorescence quenching using AZD-0328 (30 uM azd0328): 79.44% | YFP fluorescence quenching using Facinicline (30 uM fac): 78.63 | YFP fluorescence quenching using TC-6987 (500 uM tc6987): −15.15 | percent quench of YFP fluorescence, 10 uM ach: −6.16% | percent quench of YFP fluorescence, 100 uM ach: −11.12% | percent quench of YFP fluorescence, 1 mM ach: −2.74% | percent quench of YFP fluorescence, 3 mM ach: 53.61%
